Laboratory results reported in paper PMC5792912.

B1: COMT in HLC (Homo sapiens) (protein)
chain: MGDTKEQRILNHVLQHAEPGNAQSVLEAIDTYCEQKEWAMNVGDKKGKIVDAVIQEHQPSVLLELGAYCGYSAVRMARLLSPGARLITIEINPDCAAITQRMVDFAGVKDKVTLVVGASQDIIPQLKKKYDVDTLDMVFLDHWKDRYLPDTLLLEECGLLRKGTVLLADNVICPGAPDFLAHVRGSSCFECTHYQSFLEYREVVDGLEKAIYKGPGSEAGP
notes: Pooled human liver cytosol (HLC) from seven male donors; tissue Research Institute for Liver Diseases (Shanghai, China) Lot; QROX; host or cells: pooled human liver cytosol, seven male donors
B2: recombinant human soluble COMT (S-COMT) (Homo sapiens) (protein)
chain: B1 chain
notes: made in house

Columns and labels:
Assay type in all cases: in vitro ADME
[1] = substrate: O=C(O)Cc1cc(=O)oc2c(O)c(O)ccc12; experiment: Methylation kinetics in pooled human liver cytosol (HLC); conditions: other: HLC 0.5 mg/ml, substrate 0.1–40 µM, 5 min; best-fit value ± s.e.; pH 7.4
Procedure: (§1) Reaction mixtures were pre-incubated at 37°C for 5 min and initiated by the addition of SAM to a final concentration of 0.4 mM. The samples were incubated for a certain period of time and the reaction was terminated by the addition of 200 µl ice-cold acetonitrile and then centrifuged at 20 000g, 4°C, for 20 min. Control incubations were performed either without human liver cytosol, or without SAM or without substrate. The supernatants were subjected to ultra-fast liquid chromatography (UFLC) coupled with a diode array detector (DAD) and an electrospray ionization (ESI) mass spectrometer (MS) analyzer.
(§2) 7,8-DHCs and their methylated conjugates were analysed by a UFLC spectrometry system (Shimadzu, Kyoto, Japan), equipped with two LC-20AD pumps, a DGU-20A3 vacuum degasser, a SIL-20ACHT auto-sampler, a CTO-20AC column oven, an SPD-M 20A DAD, a CBM-20A communications bus module, a mass detector (2010EV) with an ESI interface and a computer equipped with UFLC-MS SOLUTION v. 3.41 software. A Shimadzu ODS (75.0 × 2.0 mm, 3 µm) analytical column was used to separate 7,8-DHCs and their methylated conjugates. Column temperature was kept at 40°C. […] The methylation samples were stable over 72 h at 4°C. 7,8-DHC methylation was quantified by the standard curves of the methylated conjugates at the detector wavelength of 325 nm, which were linear from 0.01 to 10 µM (the correlation coefficient was 0.999).
(§3) For estimating kinetic parameters, 7,8-DHCs (0.1–40 µM) were incubated with pooled HLC and S-COMT. 7,8-DHCs (0.1–40 µM) were incubated with HLC or S-COMT for 5 min, using a microsomal protein concentration of 0.5 mg ml^−1 or 0.002 mg ml^−1 for HLC and S-COMT, respectively. Kinetic constants for 7,8-DHCs methylation by HLC and S-COMT were obtained by fitting the Michaelis–Menten kinetics equation (3.1) to experimental data.
(§4) For the Michaelis–Menten kinetic model, 3.1 v=Vmax×[S]/Km+[S], where v is the rate of reaction, [S] is the substrate concentration, Vmax is the maximum velocity estimate and Km is the apparent affinity constant.
(§5) All incubations were performed in duplicate. Kinetic constants were obtained using GraphPad PRISM 6 (GraphPad Software, Inc. La Jolla, CA) software.

[2] = substrate: Cc1cc(=O)oc2c(O)c(O)ccc12; experiment: as above; conditions: other: HLC 0.5 mg/ml, substrate 0.1–40 µM, 5 min; best-fit value ± s.e.; pH 7.4
Procedure: as §1, §2, §3, §4, §5

[3] = substrate: O=c1ccc2ccc(O)c(O)c2o1; experiment: as above; conditions: other: HLC 0.5 mg/ml, substrate 0.1–40 µM, 5 min; best-fit value ± s.e.; pH 7.4
Procedure: as §1, §2, §3, §4, §5

[4] = substrate: O=c1cc(-c2ccccc2)c2ccc(O)c(O)c2o1; experiment: as above; conditions: other: HLC 0.5 mg/ml, substrate 0.1–40 µM, 5 min; best-fit value ± s.e.; pH 7.4
Procedure: as §1, §2, §3, §4, §5

[5] = substrate: O=C(O)Cc1cc(=O)oc2c(O)c(O)ccc12; experiment: Methylation kinetics with recombinant human soluble COMT; conditions: other: S-COMT 0.002 mg/ml, substrate 0.1–40 µM, 5 min; best-fit value ± s.e.; pH 7.4
Procedure: as §1, §2, §3, §4, §5

[6] = substrate: Cc1cc(=O)oc2c(O)c(O)ccc12; experiment: as above; conditions: other: S-COMT 0.002 mg/ml, substrate 0.1–40 µM, 5 min; best-fit value ± s.e.; pH 7.4
Procedure: as §1, §2, §3, §4, §5

[7] = substrate: O=c1ccc2ccc(O)c(O)c2o1; experiment: as above; conditions: other: S-COMT 0.002 mg/ml, substrate 0.1–40 µM, 5 min; best-fit value ± s.e.; pH 7.4
Procedure: as §1, §2, §3, §4, §5

[8] = substrate: O=c1cc(-c2ccccc2)c2ccc(O)c(O)c2o1; experiment: as above; conditions: other: S-COMT 0.002 mg/ml, substrate 0.1–40 µM, 5 min; best-fit value ± s.e.; pH 7.4
Procedure: as §1, §2, §3, §4, §5

Protein	Km [1] [µM]	Km [2] [µM]	Km [3] [µM]	Km [4] [µM]	Km [5] [µM]	Km [6] [µM]	Km [7] [µM]	Km [8] [µM]
B1	7.52 ± 0.64	0.20 ± 0.029	0.21 ± 0.036	0.089 ± 0.015	–	–	–	–
B2	–	–	–	–	7.93 ± 1.31	1.07 ± 0.10	0.48 ± 0.071	0.22 ± 0.034
